Laboratory results: publication PMC8179133, “PilB from Streptococcus sanguinis is a bimodular type IV pilin with a direct role in adhesion” (Proceedings of the National Academy of Sciences of the …, 2021)

B1: 6His-PilB_(36-461) (domain or fragment)
chain: SSRELIEREASIQAEMRTSMQYVDRTVGKATSIFILDDSKFKGSKQGLTREWSYIGLSADGKKVMNYVWNKQKQDWDVSELGTKSLYNMKLDLEFKTEGAYQDNRLISYNLTGKYPDTNNKLGIDTAISALNTKQVFSKVAKGKKGIAIAYRTDPIQGQMNIAVSFVFDTSGSMDWDLQGRNVKKTGNESRMDILRKKSVIMIKDLAEIGNISVNLVGFSTSAKYIQQNFSNLDNGTNTIIATITKRENLNPDGVTNPGDGLRYGMISLQSQPAQLKYIVLLTDGIPNAYLVDSRALYAGNRVDLSQGAGRVTFNNPIYDLSPTLGYEYSRLGYDLYSRDSITRENSIAYAGEVSKKFGLGIKRVNVIGFSGVNHEIAYGQSLTDRIGEGGMETKYVSATNEEALQKTFSDIKKQIQQDLWFVSGP
notes: pilin module, short loop and vWA module; 48.4 kDa; synthetic gene codon optimized for E. coli; The 6His tag is noncleavable; also called native PilB; soluble portion of PilB; not shown: 6His, N-terminal, kept
B2: PilBvWA (domain or fragment)
chain: QGQMNIAVSFVFDTSGSMDWDLQGRNVKKTGNESRMDILRKKSVIMIKDLAEIGNISVNLVGFSTSAKYIQQNFSNLDNGTNTIIATITKRENLNPDGVTNPGDGLRYGMISLQSQPAQLKYIVLLTDGIPNAYLVDSRALYAGNRVDLSQGAGRVTFNNPIYDLSPTLGYEYSRLGYDLYSRDSITRENSIAYAGEVSKKFGLGIKRVNVIGFSGVNHEIAYGQSLTDRIGEGGMETKYVSATNEEALQKTFSDIKKQIQQDLWFVSGP
notes: PilB of Streptococcus sanguinis 2908, residues 192-461: only the von Willebrand factor A-like (vWA) module; expressed from pET28-pilB192-461; also called vWA module of PilB; PilB 192-461; source: E. coli BL21(DE3), purified; not shown: 6His, N-terminal, kept

How the values were obtained:
[1] = biological target: fibronectin from human plasma (human); experiment: ELISA; putative ligands (5 µg/mL in carbonate-bicarbonate buffer, 50 µL) adsorbed on MaxiSorp plates O/N at 4 °C; blocked 1 h with 3% BSA or 1% gelatin in PBS; serial twofold dilutions of 6His-PilB (40 to 0.625 µg/mL) for 2 h at 37 °C; detected with anti-6His antibody and HRP-linked anti-rabbit IgG, read at 450 nm; Kd by nonlinear regression (One site - Total and nonspecific binding) with BSA or gelatin as nonspecific binding control
[2] = biological target: fibrinogen from human plasma (human, UniProt P02671 36-866; P02675 45-491; P02679 27-453, Plasma-purified disulfide-linked (AalphaBbetagamma)2 hexamer, N-glycosylated on the beta and gamma chains, fibrinopeptides A and B retained. Limits are not printed. The alpha chain is taken as the mai); experiment: ELISA; putative ligands (5 µg/mL in carbonate-bicarbonate buffer, 50 µL) adsorbed on MaxiSorp plates O/N at 4 °C; blocked 1 h with 3% BSA or 1% gelatin in PBS; serial twofold dilutions of 6His-PilB (40 to 0.625 µg/mL) for 2 h at 37 °C; detected with anti-6His antibody and HRP-linked anti-rabbit IgG, read at 450 nm; Kd by nonlinear regression (One site - Total and nonspecific binding) with BSA or gelatin as …; settings: both partners purified
Sequence of fibrinogen from human plasma (P02671 36-866, chain 1 of 3): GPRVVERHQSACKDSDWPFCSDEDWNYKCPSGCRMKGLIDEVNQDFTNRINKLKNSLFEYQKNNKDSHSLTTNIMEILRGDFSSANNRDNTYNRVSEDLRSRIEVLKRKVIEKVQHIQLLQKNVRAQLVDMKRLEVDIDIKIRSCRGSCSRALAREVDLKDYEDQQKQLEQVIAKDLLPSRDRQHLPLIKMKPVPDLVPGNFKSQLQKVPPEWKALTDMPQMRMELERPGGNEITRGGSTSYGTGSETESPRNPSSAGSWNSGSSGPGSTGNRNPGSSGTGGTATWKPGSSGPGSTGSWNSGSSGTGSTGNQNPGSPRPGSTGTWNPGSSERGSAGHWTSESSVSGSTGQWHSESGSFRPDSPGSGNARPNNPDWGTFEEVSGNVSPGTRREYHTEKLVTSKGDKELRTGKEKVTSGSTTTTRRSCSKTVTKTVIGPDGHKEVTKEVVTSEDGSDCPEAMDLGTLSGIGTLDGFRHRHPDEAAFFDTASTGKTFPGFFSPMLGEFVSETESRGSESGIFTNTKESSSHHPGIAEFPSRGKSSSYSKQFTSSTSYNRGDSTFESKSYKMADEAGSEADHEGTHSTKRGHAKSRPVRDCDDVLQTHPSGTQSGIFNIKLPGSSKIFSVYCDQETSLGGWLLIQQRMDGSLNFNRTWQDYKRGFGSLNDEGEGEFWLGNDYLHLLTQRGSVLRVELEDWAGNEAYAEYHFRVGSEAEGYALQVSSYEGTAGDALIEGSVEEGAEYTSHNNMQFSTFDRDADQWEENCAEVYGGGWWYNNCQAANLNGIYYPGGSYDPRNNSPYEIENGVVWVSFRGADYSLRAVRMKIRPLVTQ
Sequence of fibrinogen from human plasma (P02675 45-491, chain 2 of 3): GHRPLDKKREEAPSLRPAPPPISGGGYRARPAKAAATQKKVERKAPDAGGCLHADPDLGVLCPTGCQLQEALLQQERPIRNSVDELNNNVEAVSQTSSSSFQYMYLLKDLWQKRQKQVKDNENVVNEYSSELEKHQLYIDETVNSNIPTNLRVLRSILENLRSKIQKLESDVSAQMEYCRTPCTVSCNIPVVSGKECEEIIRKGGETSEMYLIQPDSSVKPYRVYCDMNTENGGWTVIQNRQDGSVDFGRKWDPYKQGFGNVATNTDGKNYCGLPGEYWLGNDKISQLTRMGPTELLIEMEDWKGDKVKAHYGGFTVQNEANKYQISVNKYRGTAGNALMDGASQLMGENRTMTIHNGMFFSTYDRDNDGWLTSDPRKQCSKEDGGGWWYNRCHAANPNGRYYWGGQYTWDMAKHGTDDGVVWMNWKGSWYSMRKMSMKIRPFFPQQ
Sequence of fibrinogen from human plasma (P02679 27-453, chain 3 of 3): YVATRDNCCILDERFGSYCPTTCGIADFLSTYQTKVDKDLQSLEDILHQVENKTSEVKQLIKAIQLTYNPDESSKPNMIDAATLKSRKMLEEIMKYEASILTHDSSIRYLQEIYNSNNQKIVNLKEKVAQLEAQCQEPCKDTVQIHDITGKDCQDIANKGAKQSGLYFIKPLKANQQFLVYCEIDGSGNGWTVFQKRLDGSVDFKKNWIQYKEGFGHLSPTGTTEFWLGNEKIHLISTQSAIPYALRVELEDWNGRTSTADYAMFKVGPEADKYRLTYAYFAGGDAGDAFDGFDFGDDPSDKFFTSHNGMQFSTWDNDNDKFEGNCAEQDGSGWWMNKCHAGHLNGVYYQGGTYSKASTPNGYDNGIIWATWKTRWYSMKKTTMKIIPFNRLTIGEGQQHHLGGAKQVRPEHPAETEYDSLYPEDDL

| Molecule | Kd [1] | Kd [2] |
| --- | --- | --- |
| 6His-PilB_(36-461) (from UniProt A0A0B7GP99 36-461) (domain or fragment) | 494 nM | – |
| PilBvWA (from UniProt A0A0B7GP99 192-461) (domain or fragment) | 997 nM | – |
| B1 | – | 865 nM |
| B2 | – | 337 nM |
